One block for each binder: values may come before it.
Target: T1, IL10Rα/IL2Rγ receptor (human) (UniProt Q13651)
T1 sequence (looked up) 1: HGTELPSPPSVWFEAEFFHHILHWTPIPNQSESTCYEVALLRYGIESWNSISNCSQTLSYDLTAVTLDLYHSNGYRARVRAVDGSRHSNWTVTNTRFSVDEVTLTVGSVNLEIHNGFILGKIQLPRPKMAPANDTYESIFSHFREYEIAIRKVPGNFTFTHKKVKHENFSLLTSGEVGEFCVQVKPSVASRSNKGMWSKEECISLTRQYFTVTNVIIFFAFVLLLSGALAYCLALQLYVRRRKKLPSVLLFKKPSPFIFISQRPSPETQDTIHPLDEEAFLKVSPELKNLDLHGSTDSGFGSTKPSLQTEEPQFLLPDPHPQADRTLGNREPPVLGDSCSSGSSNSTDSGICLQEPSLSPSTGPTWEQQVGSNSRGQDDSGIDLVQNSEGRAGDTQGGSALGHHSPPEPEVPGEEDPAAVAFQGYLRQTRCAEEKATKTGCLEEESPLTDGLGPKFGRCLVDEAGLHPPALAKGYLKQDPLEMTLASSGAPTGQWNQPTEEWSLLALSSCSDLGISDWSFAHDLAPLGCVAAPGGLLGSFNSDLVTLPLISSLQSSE
T1 sequence (looked up) 2: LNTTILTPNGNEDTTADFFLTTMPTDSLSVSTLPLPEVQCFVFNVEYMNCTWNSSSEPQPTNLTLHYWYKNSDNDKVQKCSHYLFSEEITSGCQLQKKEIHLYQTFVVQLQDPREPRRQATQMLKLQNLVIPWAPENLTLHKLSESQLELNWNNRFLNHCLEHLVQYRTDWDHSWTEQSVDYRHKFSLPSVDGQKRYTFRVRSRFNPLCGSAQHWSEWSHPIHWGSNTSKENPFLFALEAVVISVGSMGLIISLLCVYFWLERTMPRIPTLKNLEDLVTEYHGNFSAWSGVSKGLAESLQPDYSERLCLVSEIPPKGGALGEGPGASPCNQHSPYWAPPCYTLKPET
Experiment: cell-based or functional assay

Granzyme A secretion, CD8 T cells, at 0 µM: 25200 pg/mL
Granzyme A secretion, CD8 T cells, at 0.0001 µM: 22100 pg/mL
Granzyme A secretion, CD8 T cells, at 0.001 µM: 25900 pg/mL
Granzyme A secretion, CD8 T cells, at 0.01 µM: 27600 pg/mL
Granzyme A secretion, CD8 T cells, at 0.1 µM: 30000 pg/mL
Granzyme A secretion, CD8 T cells, at 1 µM: 29800 pg/mL
Granzyme A secretion, CD8 T cells, at 10 µM: 28500 pg/mL
Granzyme A secretion, CD8 T cells, at 100 µM: 25700 pg/mL
Granzyme B secretion, CD8 T cells, at 0 µM: 77700 pg/mL
Granzyme B secretion, CD8 T cells, at 0.0001 µM: 54500 pg/mL
Granzyme B secretion, CD8 T cells, at 0.001 µM: 60900 pg/mL
Granzyme B secretion, CD8 T cells, at 0.01 µM: 79000 pg/mL
Granzyme B secretion, CD8 T cells, at 0.1 µM: 108000 pg/mL
Granzyme B secretion, CD8 T cells, at 1 µM: 134000 pg/mL
Granzyme B secretion, CD8 T cells, at 10 µM: 151000 pg/mL
Granzyme B secretion, CD8 T cells, at 100 µM: 93300 pg/mL
IFNγ secretion, CD8 T cells, at 0 µM: 122000 pg/mL
IFNγ secretion, CD8 T cells, at 0.0001 µM: 104000 pg/mL
IFNγ secretion, CD8 T cells, at 0.001 µM: 113000 pg/mL
IFNγ secretion, CD8 T cells, at 0.01 µM: 131000 pg/mL
IFNγ secretion, CD8 T cells, at 0.1 µM: 144000 pg/mL
IFNγ secretion, CD8 T cells, at 1 µM: 166000 pg/mL
IFNγ secretion, CD8 T cells, at 10 µM: 157000 pg/mL
IFNγ secretion, CD8 T cells, at 100 µM: 148000 pg/mL
IL-1β secretion, LPS treated monocytes, at 0 µM: 6240 pg/mL
IL-1β secretion, LPS treated monocytes, at 0 µM (LPS only): 6880 pg/mL
IL-1β secretion, LPS treated monocytes, at 0.0001 µM: 6290 pg/mL
IL-1β secretion, LPS treated monocytes, at 0.001 µM: 5570 pg/mL
IL-1β secretion, LPS treated monocytes, at 0.01 µM: 5260 pg/mL
IL-1β secretion, LPS treated monocytes, at 0.1 µM: 4020 pg/mL
IL-1β secretion, LPS treated monocytes, at 1 µM: 3660 pg/mL
IL-1β secretion, LPS treated monocytes, at 10 µM: 4140 pg/mL
IL-1β secretion, LPS treated monocytes, at 100 µM: 6480 pg/mL
IL-9 secretion, CD8 T cells, at 0 µM: 1350 pg/mL
IL-9 secretion, CD8 T cells, at 0.0001 µM: 1060 pg/mL
IL-9 secretion, CD8 T cells, at 0.001 µM: 1120 pg/mL
IL-9 secretion, CD8 T cells, at 0.01 µM: 1160 pg/mL
IL-9 secretion, CD8 T cells, at 0.1 µM: 1420 pg/mL
IL-9 secretion, CD8 T cells, at 1 µM: 1780 pg/mL
IL-9 secretion, CD8 T cells, at 10 µM: 2150 pg/mL
IL-9 secretion, CD8 T cells, at 100 µM: 1930 pg/mL
B1: hIL10Ra_VHH14 - hIL2Rg_VHH19, linker GGGS, tag Fc (bispecific antibody, not shown: a dimerising Fc or GST)
chain: QVQLQESGGGSVQAGGSLRLSCGASGYTYSSYCMGWFRQVPGKEREGVAVIDSDGSTSYADSVKGRFTISKDNGKNTLYLQMNSLKPEDTAMYYCAADLGHYRPPCGVLYLGMDYWGKGTQVTVSSGGGSQVQLQESGGGSVQAGGSLRLSCTASGFTFDDREMNWYRQAPGNECELVSTISSDGSTYYADSVKGRFTISQDNAKNTVYLQMDSVKPEDTAVYYCAADFMIAIQAPGAGCWGQGTQVTVSS

Granzyme A secretion, CD8 T cells, at 0 µM: 25200 pg/mL
Granzyme A secretion, CD8 T cells, at 0.0001 µM: 19700 pg/mL
Granzyme A secretion, CD8 T cells, at 0.001 µM: 20900 pg/mL
Granzyme A secretion, CD8 T cells, at 0.01 µM: 22300 pg/mL
Granzyme A secretion, CD8 T cells, at 0.1 µM: 23700 pg/mL
Granzyme A secretion, CD8 T cells, at 1 µM: 26400 pg/mL
Granzyme A secretion, CD8 T cells, at 10 µM: 26500 pg/mL
Granzyme A secretion, CD8 T cells, at 100 µM: 27300 pg/mL
Granzyme B secretion, CD8 T cells, at 0 µM: 77700 pg/mL
Granzyme B secretion, CD8 T cells, at 0.0001 µM: 49300 pg/mL
Granzyme B secretion, CD8 T cells, at 0.001 µM: 45600 pg/mL
Granzyme B secretion, CD8 T cells, at 0.01 µM: 48100 pg/mL
Granzyme B secretion, CD8 T cells, at 0.1 µM: 55300 pg/mL
Granzyme B secretion, CD8 T cells, at 1 µM: 72700 pg/mL
Granzyme B secretion, CD8 T cells, at 10 µM: 84700 pg/mL
Granzyme B secretion, CD8 T cells, at 100 µM: 94600 pg/mL
IFNγ secretion, CD8 T cells, at 0 µM: 122000 pg/mL
IFNγ secretion, CD8 T cells, at 0.0001 µM: 96800 pg/mL
IFNγ secretion, CD8 T cells, at 0.001 µM: 99600 pg/mL
IFNγ secretion, CD8 T cells, at 0.01 µM: 107000 pg/mL
IFNγ secretion, CD8 T cells, at 0.1 µM: 114000 pg/mL
IFNγ secretion, CD8 T cells, at 1 µM: 130000 pg/mL
IFNγ secretion, CD8 T cells, at 10 µM: 134000 pg/mL
IFNγ secretion, CD8 T cells, at 100 µM: 134000 pg/mL
IL-1β secretion, LPS treated monocytes, at 0 µM: 6240 pg/mL
IL-1β secretion, LPS treated monocytes, at 0 µM (LPS only): 6880 pg/mL
IL-1β secretion, LPS treated monocytes, at 0.0001 µM: 6420 pg/mL
IL-1β secretion, LPS treated monocytes, at 0.001 µM: 6640 pg/mL
IL-1β secretion, LPS treated monocytes, at 0.01 µM: 5760 pg/mL
IL-1β secretion, LPS treated monocytes, at 0.1 µM: 6120 pg/mL
IL-1β secretion, LPS treated monocytes, at 1 µM: 5350 pg/mL
IL-1β secretion, LPS treated monocytes, at 10 µM: 5950 pg/mL
IL-1β secretion, LPS treated monocytes, at 100 µM: 6580 pg/mL
IL-9 secretion, CD8 T cells, at 0 µM: 1350 pg/mL
IL-9 secretion, CD8 T cells, at 0.0001 µM: 941 pg/mL
IL-9 secretion, CD8 T cells, at 0.001 µM: 1000 pg/mL
IL-9 secretion, CD8 T cells, at 0.01 µM: 1120 pg/mL
IL-9 secretion, CD8 T cells, at 0.1 µM: 1340 pg/mL
IL-9 secretion, CD8 T cells, at 1 µM: 1400 pg/mL
IL-9 secretion, CD8 T cells, at 10 µM: 1680 pg/mL
IL-9 secretion, CD8 T cells, at 100 µM: 1710 pg/mL
B2: hIL10Ra_VHH14 - hIL2Rg_VHH19, linker GGGS, tag his (bispecific antibody, not shown: small tags and cut ends)
chain: B1 chain

Granzyme A secretion, CD8 T cells, at 0 µM: 25200 pg/mL
Granzyme A secretion, CD8 T cells, at 0.0001 µM: 19700 pg/mL
Granzyme A secretion, CD8 T cells, at 0.001 µM: 22300 pg/mL
Granzyme A secretion, CD8 T cells, at 0.01 µM: 22200 pg/mL
Granzyme A secretion, CD8 T cells, at 0.1 µM: 22900 pg/mL
Granzyme A secretion, CD8 T cells, at 1 µM: 24400 pg/mL
Granzyme A secretion, CD8 T cells, at 10 µM: 26000 pg/mL
Granzyme A secretion, CD8 T cells, at 100 µM: 27500 pg/mL
Granzyme B secretion, CD8 T cells, at 0 µM: 77700 pg/mL
Granzyme B secretion, CD8 T cells, at 0.0001 µM: 49300 pg/mL
Granzyme B secretion, CD8 T cells, at 0.001 µM: 47300 pg/mL
Granzyme B secretion, CD8 T cells, at 0.01 µM: 44200 pg/mL
Granzyme B secretion, CD8 T cells, at 0.1 µM: 54800 pg/mL
Granzyme B secretion, CD8 T cells, at 1 µM: 56300 pg/mL
Granzyme B secretion, CD8 T cells, at 10 µM: 67100 pg/mL
Granzyme B secretion, CD8 T cells, at 100 µM: 74300 pg/mL
IFNγ secretion, CD8 T cells, at 0 µM: 122000 pg/mL
IFNγ secretion, CD8 T cells, at 0.0001 µM: 102000 pg/mL
IFNγ secretion, CD8 T cells, at 0.001 µM: 104000 pg/mL
IFNγ secretion, CD8 T cells, at 0.01 µM: 111000 pg/mL
IFNγ secretion, CD8 T cells, at 0.1 µM: 111000 pg/mL
IFNγ secretion, CD8 T cells, at 1 µM: 123000 pg/mL
IFNγ secretion, CD8 T cells, at 10 µM: 131000 pg/mL
IFNγ secretion, CD8 T cells, at 100 µM: 134000 pg/mL
IL-1β secretion, LPS treated monocytes, at 0 µM: 6240 pg/mL
IL-1β secretion, LPS treated monocytes, at 0 µM (LPS only): 6880 pg/mL
IL-1β secretion, LPS treated monocytes, at 0.0001 µM: 5540 pg/mL
IL-1β secretion, LPS treated monocytes, at 0.001 µM: 5550 pg/mL
IL-1β secretion, LPS treated monocytes, at 0.01 µM: 5370 pg/mL
IL-1β secretion, LPS treated monocytes, at 0.1 µM: 5290 pg/mL
IL-1β secretion, LPS treated monocytes, at 1 µM: 5800 pg/mL
IL-1β secretion, LPS treated monocytes, at 10 µM: 5790 pg/mL
IL-1β secretion, LPS treated monocytes, at 100 µM: 7100 pg/mL
IL-9 secretion, CD8 T cells, at 0 µM: 1350 pg/mL
IL-9 secretion, CD8 T cells, at 0.0001 µM: 933 pg/mL
IL-9 secretion, CD8 T cells, at 0.001 µM: 1120 pg/mL
IL-9 secretion, CD8 T cells, at 0.01 µM: 1140 pg/mL
IL-9 secretion, CD8 T cells, at 0.1 µM: 1070 pg/mL
IL-9 secretion, CD8 T cells, at 1 µM: 1220 pg/mL
IL-9 secretion, CD8 T cells, at 10 µM: 1440 pg/mL
IL-9 secretion, CD8 T cells, at 100 µM: 1670 pg/mL
B3: hIL10Ra_VHH14 - hIL2Rg_VHH19, No linker, tag his (bispecific antibody, not shown: small tags and cut ends)
chain: QVQLQESGGGSVQAGGSLRLSCGASGYTYSSYCMGWFRQVPGKEREGVAVIDSDGSTSYADSVKGRFTISKDNGKNTLYLQMNSLKPEDTAMYYCAADLGHYRPPCGVLYLGMDYWGKGTQVTVSSQVQLQESGGGSVQAGGSLRLSCTASGFTFDDREMNWYRQAPGNECELVSTISSDGSTYYADSVKGRFTISQDNAKNTVYLQMDSVKPEDTAVYYCAADFMIAIQAPGAGCWGQGTQVTVSS
